Data from patent publication US20260103529A1, “Amino Acid Sequences Directed Against the Melanocortin 4 Receptor and Polypeptides Comprising the Same for the Treatment of MC4R-Related Diseases and Disorders” (Confo Therapeutics N.V., priority 2022, published 2026).

Assays:
Assay in all cases: cell-based or functional assay
[1] = biological target: human MC3R (melanocortin 3 receptor) (human) (UniProt P41968)
[2] = biological target: human MC1R (melanocortin 1 receptor) (human) (UniProt Q01726)
[3] = biological target: human MC5R (melanocortin 5 receptor) (human) (UniProt P33032)
Chain of human MC5R (melanocortin 5 receptor) (human) (P33032 whole entry): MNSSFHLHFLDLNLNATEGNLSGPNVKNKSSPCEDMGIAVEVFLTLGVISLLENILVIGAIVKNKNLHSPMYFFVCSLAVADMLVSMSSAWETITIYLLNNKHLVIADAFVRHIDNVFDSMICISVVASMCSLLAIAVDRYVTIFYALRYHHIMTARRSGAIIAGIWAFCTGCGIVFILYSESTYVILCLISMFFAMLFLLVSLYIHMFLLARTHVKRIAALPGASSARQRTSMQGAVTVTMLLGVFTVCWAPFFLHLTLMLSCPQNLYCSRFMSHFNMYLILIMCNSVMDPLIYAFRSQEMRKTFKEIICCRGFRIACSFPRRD

[4] = biological target: human wild type MC4R (melanocortin 4 receptor) expressed on HEK293/HEK293T cells (human) (UniProt P32245)
Chain of human wild type MC4R (melanocortin 4 receptor) expressed on HEK293/HEK293T cells (human) (P32245 whole entry): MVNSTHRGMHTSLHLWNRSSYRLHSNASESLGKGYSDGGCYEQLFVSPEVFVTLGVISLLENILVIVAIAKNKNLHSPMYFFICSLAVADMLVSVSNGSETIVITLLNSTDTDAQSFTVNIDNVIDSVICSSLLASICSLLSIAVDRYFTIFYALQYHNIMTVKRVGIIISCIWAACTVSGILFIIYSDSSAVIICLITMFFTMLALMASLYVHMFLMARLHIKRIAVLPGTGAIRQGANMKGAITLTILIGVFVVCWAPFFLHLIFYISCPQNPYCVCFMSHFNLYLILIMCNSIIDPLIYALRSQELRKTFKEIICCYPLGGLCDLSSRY

Chain of human MC1R (melanocortin 1 receptor) (human) (Q01726 whole entry): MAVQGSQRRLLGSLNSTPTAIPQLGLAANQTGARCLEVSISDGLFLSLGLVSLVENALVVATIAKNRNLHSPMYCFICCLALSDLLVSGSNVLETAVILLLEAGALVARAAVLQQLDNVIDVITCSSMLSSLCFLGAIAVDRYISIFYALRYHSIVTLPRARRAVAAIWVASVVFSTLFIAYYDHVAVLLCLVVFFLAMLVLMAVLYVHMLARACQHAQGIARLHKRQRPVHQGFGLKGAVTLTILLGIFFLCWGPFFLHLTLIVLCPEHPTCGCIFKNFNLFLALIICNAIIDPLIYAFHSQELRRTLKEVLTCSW
Chain of human MC3R (melanocortin 3 receptor) (human) (P41968 whole entry): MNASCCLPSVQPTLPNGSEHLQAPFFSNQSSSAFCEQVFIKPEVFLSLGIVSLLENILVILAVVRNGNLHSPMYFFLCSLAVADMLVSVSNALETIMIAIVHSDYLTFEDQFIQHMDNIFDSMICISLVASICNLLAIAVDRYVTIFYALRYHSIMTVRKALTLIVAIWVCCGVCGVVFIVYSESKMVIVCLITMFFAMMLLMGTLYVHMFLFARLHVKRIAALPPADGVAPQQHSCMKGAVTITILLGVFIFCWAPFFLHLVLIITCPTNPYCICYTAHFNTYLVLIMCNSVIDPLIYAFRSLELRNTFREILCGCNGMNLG

- in vitro cAMP potency EC50 (GloSensor) [1]: 2.1 nM
- in vitro cAMP potency EC50 (GloSensor) [2]: 11.5 nM
- in vitro cAMP potency EC50 (GloSensor) [3]: 451 nM
- Gs ConfoSensor, 1 mM Ca^2+, EC50 [4]: 0.6 nM
- Gs ConfoSensor, No Ca^2+, EC50 [4]: 12 nM
- in vitro cAMP potency EC50 (GloSensor) [4]: 2 nM
- β-arrestin recruitment, 1 mM Ca^2+, EC50 [4]: 1.3 nM
- β-arrestin recruitment, No Ca^2+, EC50 [4]: 18 nM
Substance: setmelanotide (peptide)
